Patent publication US20260226161A1 (EXELIXIS, published 2026)

B1: Antibody Clone A42 (antibody, human IgG1, kappa, V domains shown)
VH: EVQLVESGGGLVQPGGSLRLSCAASGFTFSWYYIHWVRQAPGKGLEWVAVIDPISSYTYYADSVKGRFTISADTSKNTAYLQMNSLRAEDTAVYYCARGFDRAMDYWGQGTLVTVSS
VL: DIQMTQSPSSLSASVGDRVTITCRASQSVSSAVAWYQQKPGKAPKLLIYSASSLYSGVPSRFSGSRSGTDFTLTISSLQPEDFATYYCQQYYSSPYTFGQGTKVEIKR
B2: P12 × A11 (1 × 1 format) (bispecific antibody)
heavy 1: DIQMTQSPSSLSASVGDRVTITCRASQSVSSAVAWYQQKPGKAPKLLIYSASSLYSGVPSRFSGSRSGTDFTLTISSLQPEDFATYYCQQFMLEPITFGQGTKVEIKGQPREPQVCTLPPSRDELTKNQVSLTCLVRGFYPSDIAVEWESNGQPENNYKTTPPVLDSDGSFFLYSKLTVDKSRWQQGNVFSCSVMHEALHNHYTQKSLSLSPGKDKTHTCPPCPAPEAAGGPSVFLFPPKPKDTLMISRTPEVTCVVVDVSHEDPEVKFNWYVDGVEVHNAKTKPREEQYNSTYRVVSVLTVLHQDWLNGKEYKCKVSNKALKAPIEKTISKAKGQPREPQVYTLPPSREEMTKNQVSLSCAVKGFYPSDIAVEWESNGQPENNYKTTPPVLDSDGSFFLVSKLTVDKSRWQQGNVFSCSVMHEALHNHYTQKSLSLSPGK
light 1: EVQLVESGGGLVQPGGSLRLSCAASGFTFSSYYIHWVRQAPGKGLEWVATINSRGGFTLYADSVKGRFTISADTSKNTAYLQMNSLRAEDTAVYYCARGYTLTPVLDYWGQGTLVTVSSAQPREPQVYTLPPCRDWLTKNQVSLTCLVKGFYPSDIAVEWESNGQPENNYKTTPPVLDSDGSFFLYSKLTVDKSRWQQGNVFSCSVMHEALHNHYTQKSLSLSPGK
heavy 2: not shown
light 2: EVQLVESGGGLVQPGGSLRLSCAASGFTFSWYYIHWVRQAPGKGLEWVAVIDPISSYTYYADSVKGRFTISADTSKNTAYLQMNSLRAEDTAVYYCARGFDRAMDYWGQGTLVTVSSASTKGPSVFPLAPSSKSTSGGTAALGCLVKDYFPEPVTVSWNSGALTSGVHTFPAVLQSSGLYSLSSVVTVPSSSLGTQTYICNVNHKPSNTKVDKKVEPKSC
notes: One PD-L1 site, one NKG2A site; also called P12×A11, sFc; P12×A11 (sFc)

Experiments:
[1] = target: T1, NKG2A expressed on KHYG-1 cells (endogenous) (human, UniProt P26715 1-233; Q13241 1-179); assay: flow cytometry on KHYG-1 cells expressing endogenous NKG2A
T1 construct: whole, on cells; Surface NKG2A copy number of approximately 10-20K; also called KHYG-1 cells expressing endogenous NKG2A; NKG2A-expressing cells
Procedure: Antibodies that were selected for binding to NKG2A, for example, such as those described in Examples 1 and 2, were evaluated for binding to cells that express NKG2A.
Cells were harvested at 70-90% confluence on the day of the assay. Cells were collected by centrifugation at 200×g for 5 minutes and media was removed. Cells were resuspended at 2×10⁶ cells per mL in cold PBS. […] 50 μL per well of the antibody dilution was plated in a 96 well V-bottom plate (Costar 3897). 50 μL per well of cell suspension was added. Plates were placed at 4° C. for 45-60 minutes.

[2] = target: T2, biotinylated human NKG2C/CD94 heterodimer (extracellular domains, Fc fusions) (human, UniProt P26717 94-231; Q13241 32-179, biotinylated); assay: selection summary of Examples 2-5 (Octet binding)
T2 construct: not shown: N-terminal Fc (hole)

[3] = target: T3, biotinylated cyno NKG2A/CD94 heterodimer (extracellular domains) (cynomolgus, UniProt Q9MZJ3 94-233; Q9MZK9 32-179, biotinylated); assay: selection summary of Examples 2-5 (Octet binding)
T3 construct: also called Cynomolgus NKG2A protein; not shown: fusion partner/tags ('similar approach' to the human proteins); fusion partner ('similar approach')

[4] = target: T4, PD-L1 expressed on cells (UniProt Q9NZQ7 19-290, limits assumed); assay: flow cytometry on MC/CAR cells expressing PD-L1
T4 construct: whole, on cells; also called MC/CAR cells expressing PD-L1; PD-L1+MDA-MB-231 cells

[5] = target: T4, PD-L1 expressed on cells; assay: cell-based or functional assay
[6] = target: T5, Human NKG2A & CD94 with mouse IgG2a Fc tag (AcroBiosystems) (human, UniProt P26715 94-233; Q13241 32-179, limits assumed); assay: SPR (Carterra), antibody on chip, soluble antigen
T5 construct: Bought soluble antigen of the Carterra assay; also called hNKG2A; not shown: mouse IgG2a Fc tag

[7] = target: T6, Human PD-L1 with His tag (AcroBiosystems) (human, UniProt Q9NZQ7 19-238); assay: SPR (Carterra), antibody on chip, soluble antigen
T6 construct: Bought protein; also called hPD-L1; not shown: His tag

[8] = target: Cyno PD-L1 (cyno, UniProt G7PSE7 19-238); assay: SPR (Carterra), antibody on chip, soluble antigen
[9] = target: T7, cynomolgus NKG2A/CD94 (soluble antigen of the equilibrium assay) (cynomolgus, UniProt Q68VD2 94-233; Q68VD4 32-179, Biotinylated in the Octet assays of Example 2; state in the SPR equilibrium assay not seen.); assay: SPR equilibrium response, Langmuir isotherm; antibody on chip, soluble antigen
T7 construct: also called Cyno NKG2A/CD94; copies: 1 + 1
Procedure: In addition, a method using an equilibrium approach was performed. Kd determinations for cynomolgus NKG2A/CD94 were performed by measuring the signal response at equilibrium. […] The equilibrium response signals and corresponding antigen concentrations were then input into a Langmuir binding isotherm model, and the Kd was determined through nonlinear regression. Averages and standard deviations were calculated from 24 replicate chip locations for each molecule.

[10] = target: T8, CD94 (in the NKG2A/CD94 heterodimeric ectodomain complex) (UniProt Q13241 32-179); assay: HDX-MS on the NKG2A/CD94 ectodomain complex
T8 construct: extracellular domain; Tested only as part of the complex; also called CD94 protein
T8 sequence (looked up): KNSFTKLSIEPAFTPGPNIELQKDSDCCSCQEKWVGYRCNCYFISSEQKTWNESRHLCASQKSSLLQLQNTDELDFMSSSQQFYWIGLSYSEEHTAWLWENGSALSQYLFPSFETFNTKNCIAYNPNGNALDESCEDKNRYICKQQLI
Procedure: Two different Quench conditions were used for digestion to improve the coverage. Both Data sets 1 and 2 were collected for 3 different timepoints (2, 10, and 60 mins) in triplicate. D₂O Buffer used was 20 mM Phos, 150 mM NaCl, pH 7.4. The relative fractional uptake greater than 5% was considered significant in the analysis.
Leap HDX auto sampler and Waters Cyclic IMS MS were the instruments used.
Quenching: The exchange reaction was quenched by a shift to acidic pH and a temperature drop (two proprietary conditions were used-potential variation in buffer formulation included the use of denaturants or reducing agents).

[11] = target: T1, NKG2A expressed on KHYG-1 cells …; assay: cell-based or functional assay
[12] = target: T4, PD-L1 expressed on cells; assay: cell-based or functional assay; remark: listed apart in the source
[13] = target: T1, NKG2A expressed on KHYG-1 cells …; assay: flow cytometry on KHYG-1 cells expressing endogenous NKG2A; remark: listed apart in the source
[14] = target: T1, NKG2A expressed on KHYG-1 cells …; assay: flow cytometry competition; inhibition of HLA-E tetramer binding to KHYG-1 cells
Procedure: 15 μL per well of binder dilution at 2× concentration was plated in a 96-well plate (Costar 3897). 15 μL per well of cell suspension at 5×10⁶ cells per mL was added. Plates were placed at 4° C. for 30 minutes. Following the incubation, 5 μL per well of Fc block (BD Pharmingen Cat #564220) was added at a final concentration of 500 ng per well. Plates were placed at 4° C. for 10 minutes. […] Plates were placed at 4° C. for 1 hour. Following the incubation, 100 μL per well of PBS was added and plate was centrifuged at 400×g for 7 minutes. Supernatant was removed by flicking the plate. Cells were resuspended in 50 μL per well of PBS and analyzed by flow cytometry (Intellicyt).

Chain of Cyno PD-L1 (G7PSE7 entry or part of it limits assumed): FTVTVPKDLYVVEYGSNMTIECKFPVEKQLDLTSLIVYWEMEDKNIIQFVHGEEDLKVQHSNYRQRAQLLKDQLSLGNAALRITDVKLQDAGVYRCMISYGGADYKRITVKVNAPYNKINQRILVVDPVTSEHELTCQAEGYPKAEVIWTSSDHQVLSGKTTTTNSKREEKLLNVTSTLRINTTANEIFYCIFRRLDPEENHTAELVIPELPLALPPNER
T4 sequence (Q9NZQ7 19-290 limits assumed): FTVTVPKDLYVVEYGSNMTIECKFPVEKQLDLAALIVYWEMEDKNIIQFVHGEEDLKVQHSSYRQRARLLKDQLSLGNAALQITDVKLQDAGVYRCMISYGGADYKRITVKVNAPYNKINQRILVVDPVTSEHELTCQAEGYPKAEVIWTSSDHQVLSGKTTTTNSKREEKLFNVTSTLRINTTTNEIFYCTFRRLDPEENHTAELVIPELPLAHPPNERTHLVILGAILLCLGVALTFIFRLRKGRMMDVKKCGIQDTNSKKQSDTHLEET
T6 sequence (Q9NZQ7 19-238 limits assumed): as the sequence (G7PSE7 entry or part of it limits assumed) above, with T33A, S34A, N62S, Q68R, R82Q, L173F, A185T, I192T, L215H counted along it
T5 sequence (P26715 94-233 limits assumed, one chain of several): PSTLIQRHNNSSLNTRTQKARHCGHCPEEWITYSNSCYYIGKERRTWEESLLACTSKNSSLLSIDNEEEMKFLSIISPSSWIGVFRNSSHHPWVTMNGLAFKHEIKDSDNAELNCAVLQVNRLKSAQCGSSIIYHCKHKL
T2 sequence (P26717 other isoform, or with tags, fused parts or gaps): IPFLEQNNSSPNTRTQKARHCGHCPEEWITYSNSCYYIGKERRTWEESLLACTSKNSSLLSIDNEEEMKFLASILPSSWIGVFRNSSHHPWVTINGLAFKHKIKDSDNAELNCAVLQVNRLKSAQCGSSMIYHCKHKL
T3 sequence (Q9MZJ3 other isoform, or with tags, fused parts or gaps, chain 1 of 2): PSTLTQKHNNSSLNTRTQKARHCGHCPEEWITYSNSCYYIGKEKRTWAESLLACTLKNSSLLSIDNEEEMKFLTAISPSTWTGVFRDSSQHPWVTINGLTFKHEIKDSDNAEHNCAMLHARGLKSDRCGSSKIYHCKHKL
T3 sequence (Q9MZK9 32-179, chain 2 of 2): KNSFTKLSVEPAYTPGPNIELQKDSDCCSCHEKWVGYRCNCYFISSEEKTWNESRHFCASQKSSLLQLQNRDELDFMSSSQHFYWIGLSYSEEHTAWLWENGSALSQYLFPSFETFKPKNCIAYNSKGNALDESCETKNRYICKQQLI
T7 sequence (NKG2A, as listed by the source limits assumed, chain 1 of 2): as the sequence (Q9MZJ3 other isoform, or with tags, fused parts or gaps, chain 1 of 2) above
T7 sequence (CD94, as listed by the source limits assumed, chain 2 of 2): as the sequence (Q9MZK9 32-179, chain 2 of 2) above

| Binder | EC50 [1] | binding result [2] | binding result [3] | EC50 [4] | IC50 of inhibiting PD-1/PD-L1 interaction in PD-L1+MDA-MB-231 cells (PD-1/PD-L1 Signaling Bioassay, chemiluminescent signal) [5] | Kd [6] | koff [6] | kon [6] | Kd [7] | koff [7] | kon [7] | Kd [8] | koff [8] | kon [8] | Kd [9] | binding result [10] | EC50 (read off the curve) of doublet formation between NKG2A+ KHYG-1 and PD-L1+ LCL721.221-PD-L1 cells [11] | EC50 (read off the curve) of doublet formation between NKG2A+ KHYG-1 and PD-L1+ LCL721.221-PD-L1 cells [12] | EC50 [13] | EC50 [14] |
| --- | --- | --- | --- | --- | --- | --- | --- | --- | --- | --- | --- | --- | --- | --- | --- | --- | --- | --- | --- | --- |
| B1 | 26.7 nM | no binding | binds |  |  |  |  |  |  |  |  |  |  |  |  |  |  |  |  |  |
| B2 |  |  |  | 2.17 nM | 0.557 nM | 0.38 nM | 9e-05 s⁻¹ | 240000 M⁻¹ s⁻¹ | 0.17 nM | 8e-05 s⁻¹ | 470000 M⁻¹ s⁻¹ | 0.11 nM | 6e-05 s⁻¹ | 540000 M⁻¹ s⁻¹ | 49 nM | no binding | ~0.2 nM | ~0.2 nM | 2.8 nM | 66 nM |
